Values belong to the substance of their own block, whether it stands above or below them.
Columns and labels:
Assay in all cases: cell-based or functional assay
[1] = molecular target: hRL (92-311)-FKBP (UniProt P27652)
[2] = molecular target: FKBP-hRL (112-311) (UniProt P62942)
[3] = molecular target: hRL (112-311)-FKBP (UniProt P27652)
[4] = molecular target: FKBP-hRL (92-311) (UniProt P62942)
Chain of FKBP-hRL (92-311) (P62942 other isoform, or with tags, fused parts or gaps): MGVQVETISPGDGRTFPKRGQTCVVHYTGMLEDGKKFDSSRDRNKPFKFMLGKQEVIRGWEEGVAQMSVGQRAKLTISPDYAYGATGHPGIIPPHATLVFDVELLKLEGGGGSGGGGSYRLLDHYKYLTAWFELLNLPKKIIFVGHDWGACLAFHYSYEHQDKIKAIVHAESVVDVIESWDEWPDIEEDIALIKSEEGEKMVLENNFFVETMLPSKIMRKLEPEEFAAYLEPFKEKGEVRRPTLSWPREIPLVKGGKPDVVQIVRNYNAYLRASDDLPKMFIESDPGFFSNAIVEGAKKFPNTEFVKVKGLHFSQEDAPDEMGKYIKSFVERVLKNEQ

Chain of FKBP-hRL (112-311) (P62942 other isoform, or with tags, fused parts or gaps): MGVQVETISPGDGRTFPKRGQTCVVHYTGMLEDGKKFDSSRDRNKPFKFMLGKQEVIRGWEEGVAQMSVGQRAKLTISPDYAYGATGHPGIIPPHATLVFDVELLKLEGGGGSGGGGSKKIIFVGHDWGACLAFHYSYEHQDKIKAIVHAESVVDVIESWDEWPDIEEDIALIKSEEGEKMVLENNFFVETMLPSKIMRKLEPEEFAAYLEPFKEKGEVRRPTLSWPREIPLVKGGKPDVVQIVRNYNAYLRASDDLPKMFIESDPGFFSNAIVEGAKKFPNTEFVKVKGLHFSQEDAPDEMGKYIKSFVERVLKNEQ
Chain of hRL (112-311)-FKBP (P27652 other isoform, or with tags, fused parts or gaps): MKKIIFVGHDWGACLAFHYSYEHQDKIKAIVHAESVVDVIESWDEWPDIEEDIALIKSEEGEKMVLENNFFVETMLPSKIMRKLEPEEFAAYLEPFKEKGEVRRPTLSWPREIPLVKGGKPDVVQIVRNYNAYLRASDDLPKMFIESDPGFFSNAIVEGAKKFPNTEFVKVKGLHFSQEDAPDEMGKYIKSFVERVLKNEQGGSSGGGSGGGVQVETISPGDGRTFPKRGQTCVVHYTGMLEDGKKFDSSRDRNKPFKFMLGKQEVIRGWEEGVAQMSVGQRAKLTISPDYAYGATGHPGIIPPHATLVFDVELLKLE
Chain of hRL (1-91)-FRB (P27652 other isoform, or with tags, fused parts or gaps): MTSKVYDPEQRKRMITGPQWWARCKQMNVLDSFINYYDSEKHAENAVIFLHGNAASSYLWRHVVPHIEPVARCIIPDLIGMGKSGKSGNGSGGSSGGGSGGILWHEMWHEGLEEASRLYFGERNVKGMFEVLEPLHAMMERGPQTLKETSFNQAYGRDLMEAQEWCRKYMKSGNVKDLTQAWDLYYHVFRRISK
Chain of hRL (92-311)-FKBP (P27652 other isoform, or with tags, fused parts or gaps): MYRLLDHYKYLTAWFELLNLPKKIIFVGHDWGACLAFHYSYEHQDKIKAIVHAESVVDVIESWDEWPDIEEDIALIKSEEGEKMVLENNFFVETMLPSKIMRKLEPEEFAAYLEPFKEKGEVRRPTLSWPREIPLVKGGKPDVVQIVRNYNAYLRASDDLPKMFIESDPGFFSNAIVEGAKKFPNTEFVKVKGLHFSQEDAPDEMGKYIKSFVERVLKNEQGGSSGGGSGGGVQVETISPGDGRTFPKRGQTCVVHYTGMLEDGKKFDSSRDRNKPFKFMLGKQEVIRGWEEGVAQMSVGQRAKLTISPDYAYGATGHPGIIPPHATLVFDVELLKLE
Chain of hRL (1-111)-FRB (P27652 other isoform, or with tags, fused parts or gaps): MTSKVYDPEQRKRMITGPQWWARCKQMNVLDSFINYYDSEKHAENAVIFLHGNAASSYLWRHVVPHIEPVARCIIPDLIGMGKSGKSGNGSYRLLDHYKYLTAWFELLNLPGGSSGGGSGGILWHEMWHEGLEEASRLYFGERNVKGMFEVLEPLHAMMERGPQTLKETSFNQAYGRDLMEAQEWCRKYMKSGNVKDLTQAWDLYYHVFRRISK

- Renilla luciferase activity (PCA, TnT lysate) (fold (+rapamycin against no rapamycin)) [1]: 134
Substance: FRB-hRL (1-91) (from UniProt P42345 2021-2113; P27652 1-91)

- Renilla luciferase activity (PCA, TnT lysate) (fold (+rapamycin against no rapamycin)) [2]: 5.3
- Renilla luciferase activity (PCA, TnT lysate) (fold (+rapamycin against no rapamycin)) [3]: 46
Substance: FRB-hRL (1-111) (from UniProt P42345 2021-2113; P27652 1-111)

- Renilla luciferase activity (PCA, TnT lysate) (fold (+rapamycin against no rapamycin)) [4]: 8.6
Substance: hRL (1-91)-FRB (from UniProt P27652 1-91; P42345 2021-2113)

- Renilla luciferase activity (PCA, TnT lysate) (fold (+rapamycin against no rapamycin)) [2]: 81
Substance: hRL (1-111)-FRB (from UniProt P27652 1-111; P42345 2021-2113)

— patent US20100273186A1, “SPLIT MUTANT HYDROLASE FUSION REPORTER AND USES THEREOF” (Promega Corporation, priority 2007, published 2010)
